# Laboratory results: publication PMC7272653, “Human aminolevulinate synthase structure reveals a eukaryotic-specific autoinhibitory loop regulating substrate binding and product release” (Nature Communications, 2020)
# Biological target: the molecule itself
# Test: SEC + other: SAXS; in solution; SAXS coupled to a Shodex KW403-4F size exclusion column; 300 mM NaCl, 25 mM Hepes 7.5, 1 mM TCEP, 2% glycerol, 1% sucrose, 20 °C
row,Protein,stoichiometry N
1,"hsALAS2_(ΔN142ΔC545) (catalytic domain alone, aa 143–545) (domain or fragment, human, UniProt P22557 143-545, looked up, human ALAS2, catalytic domain alone, aa 143–545 (Ct-extension omitted); also called hsALAS2_(ΔN142ΔC545) WT; source: constructs cloned into pFB-LIC-Bse (Sf9) and pNIC28-Bsa4; purified (Ni-NTA, Superdex 200)) FSYDQFFRDKIMEKKQDHTYRVFKTVNRWADAYPFAQHFSEASVASKDVSVWCSNDYLGMSRHPQVLQATQETLQRHGAGAGGTRNISGTSKFHVELEQELAELHQKDSALLFSSCFVANDSTLFTLAKILPGCEIYSDAGNHASMIQGIRNSGAAKFVFRHNDPDHLKKLLEKSNPKIPKIVAFETVHSMDGAICPLEELCDVSHQYGALTFVDEVHAVGLYGSRGAGIGERDGIMHKIDIISGTLGKAFGCVGGYIASTRDLVDMVRSYAAGFIFTTSLPPMVLSGALESVRLLKGEEGQALRRAHQRNVKHMRQLLMDRGLPVIPCPSHIIPIRVGNAALNSKLCDLLLSKHGIYVQAINYPTVPRGEELLRLAPSPHHSPQMMEDFVEKLLLAWTAVGL",2
2,"hsALAS2_(ΔN142) (human erythroid-specific 5′-aminolevulinate synthase, aa 143–587) (enzyme, UniProt P22557 143-587, looked up, human ALAS2 (5′-aminolevulinate synthase, erythroid-specific), aa 143–587: catalytic core and Ct-extension; Before crystallisation it was made non-covalent with hydroxylamine; The His6 tag is TEV-cleavable and was removed 'where applicable'; also called hsALAS2_(ΔN142) WT; source: baculovirus-infected Sf9 insect cells, purified (Ni-NTA, Superdex 200)) FSYDQFFRDKIMEKKQDHTYRVFKTVNRWADAYPFAQHFSEASVASKDVSVWCSNDYLGMSRHPQVLQATQETLQRHGAGAGGTRNISGTSKFHVELEQELAELHQKDSALLFSSCFVANDSTLFTLAKILPGCEIYSDAGNHASMIQGIRNSGAAKFVFRHNDPDHLKKLLEKSNPKIPKIVAFETVHSMDGAICPLEELCDVSHQYGALTFVDEVHAVGLYGSRGAGIGERDGIMHKIDIISGTLGKAFGCVGGYIASTRDLVDMVRSYAAGFIFTTSLPPMVLSGALESVRLLKGEEGQALRRAHQRNVKHMRQLLMDRGLPVIPCPSHIIPIRVGNAALNSKLCDLLLSKHGIYVQAINYPTVPRGEELLRLAPSPHHSPQMMEDFVEKLLLAWTAVGLPLQDVSVAACNFCRRPVHFELMSEWERSYFGNMGPQYVTTYA",2
